In the RNAGym collection of RNA variant scans (doi:10.1073/pnas.2313332121):

B1: TPR t1 (parent)
chain: GACCAAUCUGCCCUCAGAGCUCGAGAACAUCUUCGGAUGCAGAGGAGGCAGGCUUCGGUGGCGCGAUAGCGCCAACGUCCUCAACCUCCAAUGCAUCCCACCACAUGAUGAUGCCUGAAGAGCCUUGGUUUUUUG

Variants of: B1
Experiment: polymerase ribozyme fitness, log enrichment relative to wild type (log ratio); higher = more active; in vitro selection for triplet polymerase activity
In short: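 Mutant libraries of both subunits of a heterodimeric triplet polymerase ribozyme were PCR-built, transcribed, and selected once in triplicate, with frozen incubation at −7 °C and capture of gel-excised extended constructs on streptavidin beads before RT-PCR. Illumina sequencing of input and output libraries was filtered to genotypes with ≥10 input reads and ≥1 read per output. Fitness is the logarithm of genotype enrichment over wild-type enrichment, using inverse-variance-weighted replicate averages. The logarithm is base 2.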

Row | Variant | polymerase ribozyme fitness (log ratio)
1 | C22U U38G C73U | -4.47
2 | A26U C82G C97A C98A U112A | -6.74
3 | A26U G135A | -3.67
4 | A26G C73A | -1.78
5 | G25C A29G U33C G60A C98U G113C | -7.69
6 | A24G G51A U78C | -6.04
7 | A26U G42U G69C C72A C79U G110C | -7.46
8 | A27C C86G U133A | -5.16
9 | A27G A46U G77U U78A | -3.31
10 | A27U A29C | -4.78
11 | A26C A27C U59A C72U C123A | -6.08
12 | G23U A29G C70A A83U C85A C115U | -7.23
13 | A27U C49U | -3.64
14 | A26U C53U G71C A118U | -3.17
15 | C22U C94A | -4.02
16 | A27C G42C G71A G120C U126A U130G | -6.83
17 | C22U G44C | -4.2
18 | G25A C40U G93C C101U C104G C115U A118G | -6.52
19 | A27C G61A | -4.32
20 | A26U C53A U78A G110A | -5.05
21 | C22U U55G U106A | -3.56
22 | A24G C124A | 0.386
23 | A27U A83U C86U U129C | -3.64
24 | A26U G36C | -4.29

Row | Variant | polymerase ribozyme fitness (log ratio)
25 | A24G G36C C49A G63U | -4.77
26 | A27G C40G | -1.89
27 | A26C A29G U112G | -7.05
28 | A27G C88U U92A C104A U109C A119G U133A | -7.24
29 | A26C U92A | -5.95
30 | A24G U87A | -1.94
31 | G23C C123A | -6.41
32 | G23U A24C C31G C72U A83C A90U G93A G107U U109A | -6.51
33 | A24G G71C G120U | -2.78
34 | A26G G42C | -4.99
35 | A26G C62U C80G G110C | -7.8
36 | A26C U106G | -6.98
37 | C22U G120C | -2.63
38 | A26U A43U A121U | -4.81
39 | A26G A27U A74G C115U C124U | -5.7
40 | A26U C56A U59C | -4.4
41 | C22U G51A G61C U109A G117C | -7.16
42 | C22G U38A C64U G77U G120A | -3.99
43 | A24G G48A C64U | -2.39
44 | A27U C73A | -3.09
45 | A24G G44U G61A A74U U133G | -3.56
46 | A26U C82G | -4.82
47 | A24G G71C | -2.48
48 | A26U C72A | -2.97

Row | Variant | polymerase ribozyme fitness (log ratio)
49 | G23C A27G G110U | -6.38
50 | A26G G60U C97U | -2.92
51 | A24C G61U | -6.19
52 | A26G A84G G120A | -2.95
53 | G23A C82G | -5.43
54 | A26U C72A U78C A91C A118G A121U U126C | -5.75
55 | C22G G110U U112G | -7.26
56 | G23A G39U C53A G69U G71A C115G G117A | -4.86
57 | C22U G63C G120U | -4.89
58 | G23C A29C G48C U106G C114U | -8.24
59 | A27G G93C C104U | -3.11
60 | A27G U32G C62U U78G G120C | -6.42
61 | A26G G69A A91U U133G | -6.73
62 | A27G C62U C94A U106C | -4.15
63 | A26U U54G U78C C89U | -5.2
64 | A26U C114U | -5.07
65 | A26U C114A | -3.87
66 | A27G C40U G61C | -4.06
67 | C22U A43G G61U C115A | -5.75
68 | C22U A26G G52C A105C C124U | -4.45
69 | A26G U78C | -2.25
70 | A26G U129C | -2.73
71 | A27C C53A C94G | -4.6
72 | C22U C82A U87G | -5.14

Row | Variant | polymerase ribozyme fitness (log ratio)
73 | A26U U96A C114U G117A | -5.98
74 | A26G A50G C56G C82G | -3.42
75 | A26G A43U G69U U112A | -0.179
76 | A26U G61U U112C | -2.62
77 | A27G U106A | -2.32
78 | C22U A41C G60A C99U G110A U129G | -6.8
79 | A24G U96G C102A | -5.25
80 | A27C U54A G71A C115A U129A | -5.86
81 | A26C C34A C56A C94G A111U | -7
82 | A24C G39C C114U G120C | -5.54
83 | A26G G120A | -0.696
84 | A27G A46G C89G | -4.52
85 | A27G U96G C99G U129A | -6.24
86 | A26U C62G | -4.89
87 | A27U C53A C56A U131G | -2.89
88 | G23U C123U | -4.37
89 | G23U C72G | -6.36
90 | A26U C62U G71C G93A G120U | -3.6
91 | A27G C85A | -3.2
92 | A27U C40U C72G A100C | -7.09
93 | C22U C40G G69U C79U C82G | -3.66
94 | C22G U87A C114A | -2.89
95 | A26G C62A C82U | -3.78
96 | A27C A43G | -5.95

Row | Variant | polymerase ribozyme fitness (log ratio)
97 | G25A A43G C72U A111U | -6.94
98 | A24U G35C C49A G63A A111G C124U G135A | -6.36
99 | A27C C53U C72U U125A | -3.83
100 | G25C G63U C99A C115A | -6.39
101 | G25C | -5.94
102 | G25U | -5.58
103 | G25A | -4.68
104 | A26U G69U | -1.44
105 | A26C U54G C70A U109G | -5.98
106 | A26G G51U | -5.11
107 | A27C C123A | -3.14
108 | C22G U96C | -3.36
109 | A24G C40A G117A C124G | -4.17
110 | G25C C31G C34U A43C U112C | -6.28
111 | A27G G52A C56U | -2.59
112 | C22U A37C | -4.23
113 | G25U C56U C72G C123G | -6.31
114 | C22U G60C C104A | -5.43
115 | A27U A105U | -4.58
116 | G23C G120C | -5.28
117 | A24C G63A | -6.87
118 | C22U G71U | -4.03
119 | A27C G71A U116C | -4.74
120 | A27G C53U C72A C102U | -3.85

Row | Variant | polymerase ribozyme fitness (log ratio)
121 | A27G G60U A105U | -5.71
122 | C22U G69A C104G A111C | -7.35
123 | C22G G120A | -2.9
124 | G25A G60C | -7.2
125 | G25U C72U | -6.27
126 | A26U G42C | -6.73
127 | A27G C49U A91C | -4.72
128 | A26G G71A | -2.97
129 | A24G G47A C73A | -1.58
130 | A27G G45A | -2.35
131 | A27U A83U G128C | -6.05
132 | A24G G42U G60U C88G A121G | -1.74
133 | G23A G48U | -5.02
134 | A24U C49A C82G U112A U133C | -4.62
135 | G25U G39U G44U C73A | -6.92
136 | A26G C53G G77A | -2.93
137 | A27C U78G U125A | -4.05
138 | A27G G57U | -2.3
139 | C22U C73G C82A G120U U129A | -5.92
140 | A27C C124G | -0.608
141 | A27G A41U C64U | -3.32
142 | C22U G117A | -4.58
143 | A26U C72U C124U | -1.98
144 | C22U G69C C82A U112C A121C U132A | -3.46

Row | Variant | polymerase ribozyme fitness (log ratio)
145 | C22U G61A | -3.53
146 | G23C U59C C98U C101A U112C | -7.02
147 | A26G G63A C124G | -0.0451
148 | A24C G65A C85A C101G G113C | -6.86
149 | G23A G63U | -7.02
150 | C22U A37U A100C | -5.02
151 | A24G G58C A118U | -2.06
152 | A24G C56G C72U C86U U92A U129C | -6.8
153 | A27G C86U | -2.44
154 | A24U G61C | -7.27
155 | A26C A43C A46C C56G C86A A90G C123G | -6.74
156 | C22U U54G | -3.24
157 | G23C G44U C88U A121G | -6.39
158 | G23A G61U | -4.38
159 | A24C C56U C114G | -5.71
160 | A27G G57C G122A U132C | -3.07
161 | C22U A41G C72U C124U | -3.44
162 | G25A C72G | -5.55
163 | A24U A83U C94U A111C G122A | -6.94
164 | A26U G44A G48U C82U G122A | -6.34
165 | A26G G71C C79G | -3.86
166 | A27U | -2.89
167 | A27C | -2.85
